Here are results for one substance from patent US20070111265A1, “Ligands for mineralocorticoid receptor (MR) and methods for screening for or designing MR ligands” (Van Andel Research Institute, priority 2005, published 2007).

In test [1] the target is VP16-MR LBD (K782E) (human) (UniProt P08235). The test can be described thus: cell-based or functional assay.
Test [2] has as its target VP16-MR LBD (residues 727-984) (human) (UniProt P08235). The test is described as follows: cell-based or functional assay.

Sequence of VP16-MR LBD (residues 727-984) (human) (P08235 727-984 limits assumed): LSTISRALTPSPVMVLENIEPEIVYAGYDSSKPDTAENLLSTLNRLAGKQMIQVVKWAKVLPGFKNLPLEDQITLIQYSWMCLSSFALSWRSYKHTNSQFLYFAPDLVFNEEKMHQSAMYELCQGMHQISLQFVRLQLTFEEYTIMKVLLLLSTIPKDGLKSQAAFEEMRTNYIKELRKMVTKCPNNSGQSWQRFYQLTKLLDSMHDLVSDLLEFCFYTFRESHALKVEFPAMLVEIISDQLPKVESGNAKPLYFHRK
Sequence of VP16-MR LBD (K782E) (human) (P08235 727-984 K782E): as the sequence (P08235 727-984 limits assumed) above, with K56E counted along it

For the substance “Gal4-SRC1-4 (GAL4-DBD fused with SRC1 residues 1240-1441) (from UniProt P04386 1-147; Q15788 1240-1441)”, the activation of the reporter driven by the GAL4 DNA-binding sites (mammalian two hybrid, luciferase) in test [1] stood at 1.7 fold; in test [2], 7 fold.
